# Substitutions are numbered along the chain they refer to.
# T1: FSP1-TST, wild type, from cells under NMT inhibition (UniProt Q9BRQ8 1-373)
# T1 construct: FSP1 (ferroptosis suppressor protein 1); same construct as m3; not shown: Twin-Strep-tag, C-terminal, kept
# T1 sequence (looked up): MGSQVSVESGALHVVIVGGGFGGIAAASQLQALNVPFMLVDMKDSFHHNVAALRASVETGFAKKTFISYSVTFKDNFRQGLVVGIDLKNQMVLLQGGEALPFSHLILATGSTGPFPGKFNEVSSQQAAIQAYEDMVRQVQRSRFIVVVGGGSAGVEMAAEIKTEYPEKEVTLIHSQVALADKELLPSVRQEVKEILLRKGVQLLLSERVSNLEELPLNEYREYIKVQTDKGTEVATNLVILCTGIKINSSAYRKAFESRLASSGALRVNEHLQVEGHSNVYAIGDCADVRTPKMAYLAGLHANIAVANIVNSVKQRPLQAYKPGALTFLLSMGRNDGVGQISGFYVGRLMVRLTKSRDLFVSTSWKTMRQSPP
# T2: FSP1-TST, myristoylation-deficient G2A mutant (UniProt Q9BRQ8 1-373, G2A)
# T2 construct: FSP1 (ferroptosis suppressor protein 1) with G2A; also called FSP1 G2A mutant; source: HEK293, transfected, in lysate; not shown: Twin-Strep-tag, C-terminal, kept
# T2 sequence (looked up): T1 sequence (looked up) with G2A
# B1: TOMM40, mitochondrial protein that facilitates protein import into mitochondria (natural protein, human (endogenous in HEK293), UniProt O96008 1-361, looked up)
# chain: MGNVLAASSPPAGPPPPPAPALVGLPPPPPSPPGFTLPPLGGSLGAGTSTSRSSERTPGAATASASGAAEDGACGCLPNPGTFEECHRKCKELFPIQMEGVKLTVNKGLSNHFQVNHTVALSTIGESNYHFGVTYVGTKQLSPTEAFPVLVGDMDNSGSLNAQVIHQLGPGLRSKMAIQTQQSKFVNWQVDGEYRGSDFTAAVTLGNPDVLVGSGILVAHYLQSITPCLALGGELVYHRRPGEEGTVMSLAGKYTLNNWLATVTLGQAGMHATYYHKASDQLQVGVEFEASTRMQDTSVSFGYQLDLPKANLLFKGSVDSNWIVGATLEKKLPPLPLTLALGAFLNHRKNKFQCGFGLTIG
# modifications: myristoylated (the paper: 'is itself also myristoylated')
# notes: TOMM40, endogenous in HEK293 cells, detected with a TOMM40 antibody; source: endogenous, HEK293 lysate
# Columns and labels:
# [1] = target: T1, FSP1-TST, wild type, from cells under …; assay: co-IP; as a2, wild-type FSP1-TST with NMT inhibition of the cells; conditions: partners not purified
# [2] = target: T2, FSP1-TST, myristoylation-deficient G2A …; assay: co-IP; TST-tagged protein (WT or G2A) transfected in HEK293 cells, captured on Strep-Tactin resin; blot with TRA2B or TOMM40 antibody, signal normalised to the bait's signal; conditions: partners not purified
binder,measurement,setting,value
B1,"co-immunoprecipitated TOMM40, percent of WT",[1],28 % of WT
same,"co-immunoprecipitated TOMM40, percent of WT FSP1",[2],22 % of WT FSP1

# Source: article PMC9977449, “Discovery of lipid-mediated protein–protein interactions in living cells using metabolic labeling with photoactivatable clickable probes†” (Chemical Science, 2023)
